Results: the supplement of paper PMC6755084

System: F1*sub RNA substrate (template-directed ligation)
Test: fraction ligated after 30 min (ligated reads / total reads); higher = more ligase activity; sequences stand for … in GAGACCGCAACTGAAAAGTTGT…AGTTCTGCACGTAGAAGCAAAAGGC
Conditions: 42 °C
Outline: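 Templates from an oligo pool were PCR-amplified, transcribed with T7 and gel-purified to give the ribozyme variants. Ligated and unligated products were separated on gel, reverse transcribed using barcoded primers, and read on a MiSeq. A quality filter of ≥20 was applied to core bases. Fraction ligated was taken as ligated reads as a share of all reads per variant.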

Sequence	fraction ligated
TATCACTTGTCGTAAACACTTTATGGGTTGA [3d2088]	0.0805
ATCACTTGTCGTAAAACTTTGGATGGGTTGA [3d211]	0.768
TATCCTTGTCGTAAGACACTTTGGATGGTTA [3d1117]	0.0143
TATCACTTGTCGTAAGACACTTGGAGGGTTGA [2d279]	0.0154
TTCACTTGTCTAAGACACTTTGGATGGGTTG [3d415]	0.752
TATCACTTGTCGTAAAACTTTGGTGGGTTGA [3d2062]	0.0841
TATCACTTCGTAAGACCTTTGGATGGGTTGA [3d1318]	0.802
TACACTTGTCTAAGAACTTTGGATGGGTTGA [3d636]	0.116
ATCACTTGTCGTAGACACTTGGATGGGTTGA [3d204]	0.74
TACACTTGTCGTAGAACTTTGGATGGGTTGA [3d662]	0.145
TTACTTGTCGTAAGACACTTGGATGGGTTGA [3d291]	0.305
TATCACTTGTCGAAAACTTTGGATGGGTTGA [3d1915]	0.798
TATCATTGTCGTAAGACACTTGGATGGTTGA [3d1273]	0.395
TACACTTGTCGTAAGACATTTGGAGGGTTGA [3d710]	0.0254
TATCACTTGCGTAAGACACTTTGTGGGTTGA [3d1689]	0.05
TATCCTTGTCGTAAGACCTTTGGATGGGTTA [3d1088]	0.347
TTCACTTGTCGTAAGACACTTTGGTGGGTTG [3d500]	0.0269
TATCACTTTCGTAAGCACTTTGGATGGTTGA [3d1536]	0.0345
TATCATTGTCGAAGACACTTTGGATGGGTTGA [2d114]	0.798
TATCACTTTCGAAGACACTTTGATGGGTTGA [3d1500]	0.767
ATCATTGTCGTAAGACACTTGGATGGGTTGA [3d98]	0.726
TATCATTGTCGTAAGACACTTTGGATGGGTTA [2d126]	0.67
TATCACTTGTCGTAAGAACTTTGAGGGTTGA [3d2168]	0.0393

Sequence	fraction ligated
TATCACTTTCGTAAGACATTTGGATGGGTTG [3d1560]	0.811
TTCATTTCGTAAGACACTTTGGATGGGTTGA [3d318]	0.104
TTCACTTGTCGTAGAACTTTGGATGGGTTGA [3d432]	0.761
TTCCTTGTCGTAAGCACTTTGGATGGGTTGA [3d306]	0.772
TATCACTTGCGTAAGACACTTTGGAGGTTGA [3d1698]	0.0604
TATCACTTGTCGTAAACACTTGGATGGGTTG [3d2087]	0.774
TCACTTGTCGTAAACACTTTGGATGGGTTGA [3d12]	0.444
TATCACTGTCGTAAGCACTTTGGATGGTTGA [3d1415]	0.175
TTCACTTGTCGAAGACACTTTGGATGGGTTGA [2d33]	0.775
TTCACTTGTCGTAAACACTTGGATGGGTTGA [3d445]	0.0492
TATCTTGCGTAAGACACTTTGGATGGGTTGA [3d741]	0.828
TATATTGTCGTAAGACACTTTGGAGGGTTGA [3d773]	0.0159
TACACTTGTCGTAAGACACTTTGGATGGTTG [3d735]	0.507
TATACTTGTCGTAAGCACTTTGGATGGGTTGA [2d79]	0.778
TATCATGTCGTAAGACATTTGGATGGGTTGA [3d1132]	0.801
TATACTTTCGTAAACACTTTGGATGGGTTGA [3d800]	0.307
TTCACTTGTCGAAGACACTTTGATGGGTTGA [3d423]	0.17
TATCACTTGTCGTAAGAACTGGATGGGTTGA [3d2159]	0.802
TATCACTTGTCGAAGACACTTGGATGGTTGA [3d1961]	0.106
TATCACTTGTCGTAAGACACTTTGATGGGTTA [2d287]	0.167
ATCCTTTCGTAAGACACTTTGGATGGGTTGA [3d68]	0.791
TATACTGTCGTAAGACACTTTGGATGGGTTG [3d795]	0.683
TATCACTTGCTAAGCACTTTGGATGGGTTGA [3d1602]	0.834

Sequence	fraction ligated
TATCACTTGTCTAAGACACTTTGGTGGTTGA [3d1892]	0.104
ATCACTTGCGAAGACACTTTGGATGGGTTGA [3d142]	0.743
TATCCTTGTGTAAGACACTTTGGTGGGTTGA [3d1010]	0.062
ATCACTTGTCGTAAGACACTTTGGATGGGTTA [2d23]	0.747
TATCACTTGGTAAGACACTTTGATGGGTTGA [3d1593]	0.776
ATCACTTGTCGTAAACCTTTGGATGGGTTGA [3d212]	0.758
TTCACTTGTCGTAAGACCTTTGATGGGTTGA [3d471]	0.164
TATCACTTGTCGTAAGACCTTTGTGGGTTGA [3d2191]	0.0153
TACACTTGTCGTAAGACACTTTGGATGGGTTA [2d67]	0.274
TATACTTGTCTAAGACACTTTGATGGGTTGA [3d851]	0.719
TATCACTGTCTAAGACATTTGGATGGGTTGA [3d1364]	0.803
TATCCTTGTCGTAAACCTTTGGATGGGTTGA [3d1056]	0.766
TAACTTGTCGAAGACACTTTGGATGGGTTGA [3d514]	0.112
TACACTTGTCGTAAGCACTTTGGATGGTTGA [3d689]	0.101
TATCCTTGTCGTAAGCACTTGGATGGGTTGA [3d1068]	0.685
TATCACTTGCGTAACACTTTGGATGGGTTGA [3d1627]	0.786
TATCACTTGTCGTAAGCACTTTGGAGGGTTA [3d2146]	0.134
ATCACTTGTCGTAAGACCTTTGGATGGTTGA [3d243]	0.712
TATACTTGCGTAAGACACTTTGGTGGGTTGA [3d823]	0.014
TCACTTGTGTAAGACACTTTGGATGGGTTGA [3d8]	0.662
TTCACTTGTCGTAAGACATTGGATGGGTTGA [3d477]	0.653
ATCACTTGTCTAAGACACTTTGGTGGGTTGA [3d180]	0.0503
TATCACTTGTCGAAGCATTTGGATGGGTTGA [3d1927]	0.811

Sequence	fraction ligated
TATCATTGTCGTAAGACACTTTGATGGGTTA [3d1280]	0.158
TATCACTTGTCGTAAGACACTTTGATGGTTGA [2d286]	0.0395
TATCACTTGTGTAAGACACTTTGGATGGGTTG [2d193]	0.845
TATCACGTCGTAAGACACTTTGGATGGGTTA [3d1309]	0.734
TATCTTTCGTAAGACACTTTGGATGGGTTGA [3d740]	0.837
TTCACTTGTCGAAGACCTTTGGATGGGTTGA [3d420]	0.66
TATCACTTGTGTAAGACACTTTGGAGGGTTA [3d1804]	0.0394
TATCACTTGTCTAAGAACTTTGATGGGTTGA [3d1858]	0.777
ATCACTTTCGTAAGACACTTTGGATGGGTTGA [2d7]	0.772
TATCACTTTCGTAAGACCTTTGGAGGGTTGA [3d1550]	0.0285
TATCCTTGTGTAAGACACTTGGATGGGTTGA [3d1008]	0.367
TACACTTGTCTAAGACACTTTGGATGGGTTA [3d644]	0.131
TATACTTTCGTAAGACATTTGGATGGGTTGA [3d804]	0.754
TATCACTTGTTAAGCACTTTGGATGGGTTGA [3d1707]	0.797
TATCACTTGTCGTAAAACTTTGGATGGGTTA [3d2065]	0.764
ATCACTTGTCGTAAACACTTGGATGGGTTGA [3d214]	0.742
TATACTTGCGTAAGACACTTTGATGGGTTGA [3d822]	0.285
TATCACTTGTGTAGACACTTTGGATGGGTTA [3d1742]	0.828
TATCACTTGTCGTAAGAACTTGGATGGGTTGA [2d255]	0.805
TTCCTTGTCGTAAGACACTTTGGATGGGTTA [3d315]	0.229
TATCACTTGTCGTAAGAACTTTGGTGGGTTG [3d2175]	0.0265
TATATTGTCTAAGACACTTTGGATGGGTTGA [3d762]	0.27
TATCATTGTCGTAAGACCTTTGATGGGTTGA [3d1256]	0.778

Sequence	fraction ligated
TATCATTGTCGTAAACACTTTGGATGGGTTA [3d1235]	0.472
TATCTTGTCGTAAGACACTTTGATGGGTTGA [3d752]	0.763
TATACTGTCGTAAGACACTTTGATGGGTTGA [3d790]	0.743
TATCACTGTCGTAAGACATTTGGATGGGTTG [3d1439]	0.82
TATCACTTGTGTAAGACATTGGATGGGTTGA [3d1779]	0.848
TATCACTTGTCGTAAGCCTTTGATGGGTTGA [3d2115]	0.718
TTCACTTGTCGTAAACACTTTGATGGGTTGA [3d446]	0.0177
TATCACTTGCGTAAGCACTTTGGTGGGTTGA [3d1654]	0.366
TATCACTTGTCGAAGAATTTGGATGGGTTGA [3d1935]	0.776
TATCACTTTCGTAAGACACTTTGGATGGTTGA [2d160]	0.114
TATCACTTTTAAGACACTTTGGATGGGTTGA [3d1464]	0.768
TACATGTCGTAAGACACTTTGGATGGGTTGA [3d547]	0.16
TATCACTTTCGTAGACACTTTGGATGGTTGA [3d1516]	0.0829
TACATTGTCGTAGACACTTTGGATGGGTTGA [3d553]	0.0879
TATCACTTGTCGAAGCACTTTGATGGGTTGA [3d1929]	0.736
TATCACTTGTGTAAGAACTTTGGTGGGTTGA [3d1767]	0.0854
TTCACTTGTCGTAAGCACTTTGGAGGGTTGA [3d458]	0.051
TATCACTTTCGTAAGACACTTTGGATGGGTTGA [1d8]	0.815
TATCACTTGTCTAAGACACTTGGATGGTTGA [3d1882]	0.12
ACACTTGTCGTAAGCACTTTGGATGGGTTGA [3d35]	0.221
